This is an account of results in patent US20210009693A1 (MABSPACE BIOSCIENCES SUZHOU, published 2021).

Assay [1] addresses T1, Human PD-L1/CD274 with C-Fc Tag (hPD-L1-Fc) (human, UniProt Q9NZQ7 19-238).
T1 construct: range 19-238; ACRO Biosystem PD1-H5258, made in HEK293; also called human PD-L1-Fc; not shown: Fc fragment of human IgG1 at C-terminus
Description: blocking ELISA on coated hPD-L1-Fc; blocked ligand: biotinylated hPD-1-N297A. As to the method:
High-binding clear polystyrene 96 well plates (Nunc) were coated with 100 μl/well of coating solution consisting of 1 μg/ml hPD-L1-Fc overnight at 4° C. Then the plates were washed once on an automatic plate washer using washing buffer (PBS+0.1% Tween 20 (Sigma)). 200 μl of blocking buffer (PBS+1% BSA+1% normal goat serum+0.05% Tween-20) was added to each well and incubated 2 hours at room temp. […] The plates were then washed 3 times using the method described above. […] After the plates were washed 3 times, 100 μl/well of a solution of 1:5000 diluted HRP conjugated Neutravidin antibody (Pierce) in dilution buffer was then added to each well of the plate. After that the ELISA plates were allowed to incubate for 60 min at RT, then the plates were washed 3 times with 250 μl/well washing buffer. Finally, 100 μl/well of TMB was added to each well and the reaction was terminated using 0.64M H₂SO₄. The plates were read on a Thermo Multiscan FC at 450 nM (see FIG. 18A to 18D).
On the technique in general: In an ELISA, binding on a coated surface is turned into a signal by an enzyme label.

Assay [2] has as its target T2, Recombinant Human PD-L1/CD274 Protein (hPD-L1-his) (human, UniProt Q9NZQ7 19-238).
T2 construct: range 19-238; ACRO Biosystem PD1-H5229, made in HEK293; also called human PD-L1-his; hPD-L-his
Put plainly: ELISA on coated hPD-L1-his.

For assay [3], the target named is hPD-L1 (antigen of the Biacore assay) (human, UniProt Q9NZQ7 19-238, limits assumed). Description: SPR (Biacore), antibody captured on anti-human Fc, antigen in flow. The method, then: A CM5 sensor chip was activated in each flow cell by 7-min injection (10 μl/min) of freshly prepared 1:1 50 mM N-hydroxysuccinimide (NHS): 200 mM 1-ethyl-3-(3-dimethylaminopropyl)-carbodiimide (EDC). Then anti-human Fc antibody (GE Healthcare) in a concentration of 10 μg/ml in 10 mM sodium acetate buffer PH 5.0 was injected onto the activated chip at 10 μl/min (HBS-EP running buffer: 10 mM HEPES, 150 mM NaCl, 3.4 mM EDTA, 0.005% surfactant P20, pH 7.4). The remaining active coupling sites were blocked by 7 min injection of 1M ethanolamine at 10 μl/min. The immobilization level of each flow cell is ˜9000RU. Antibodies were captured in FC2 by anti-human Fe IgG (GE Healthcare) to 200˜300RU. FC1 was used as the reference cell. Antigen was injected at varying concentrations after capture of antibody. The association time for antibody binding antigen is 180s. Surface Regeneration condition is 120s at 10 μl/min in Gly pH1.5. The signals with captured antibody subtracted from those without captured antibody were calculated with Biacore X100 evaluation software ver. 2.0 (Biacore).
Chain of hPD-L1 (antigen of the Biacore assay) (Q9NZQ7 19-238 limits assumed): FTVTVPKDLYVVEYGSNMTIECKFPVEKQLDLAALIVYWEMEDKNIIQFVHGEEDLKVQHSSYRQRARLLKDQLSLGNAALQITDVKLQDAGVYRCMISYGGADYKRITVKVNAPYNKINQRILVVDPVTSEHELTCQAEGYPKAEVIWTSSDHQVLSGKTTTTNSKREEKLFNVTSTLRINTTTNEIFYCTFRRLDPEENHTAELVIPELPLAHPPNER
On the technique in general: Surface plasmon resonance follows binding to a sensor surface in real time, without labels.

The target in assay [4] is T2, Recombinant Human PD-L1/CD274 Protein …. Description: ELISA on coated hPD-L1-his; bound at pH7.4, then 2 h at pH7.4. The method, then:
(§1) The pH-dependent binding affinity was further measured at various pH values, such as pH4, pH4.5, pH5.0, pH5.5, pH6.0, pH7.4. The measurement by ELISA was conducted similarly to the method described above. High-binding clear polystyrene 96 well plates were coated with 100 μl/well of a 0.5 μg/ml hPD-L1-his in high pH coating buffer and incubated overnight at 4° C. Then the coated plates were washed 3 times with shaking for 10s on an automatic plate washer with PBS+0.1% Tween 20 (Amresco). Then 200 μl of blocking buffer (1% BSA (Solarbio)+1% normal goat serum (Solarbio)+0.05% Tween 20 (Amresco)) was added to each well and the plates were then incubated for 2 hours at room temperature and washed 3 times as above. […] The plates were then washed once with 250 μl/well washing buffer at pH7.4, pH6.0, pH5.5, pH5.0, pH4.5 or pH4.0 and then 100 μl/well pH7.4 or pH5.5 washing buffer was added and the incubation was continued for 2 hours at RT with shaking. Afterwards, the plates was washed 3 times washing buffer at pH7.4 and 100 μl/well of a solution of HRP conjugated goat anti-hIgG HRP antibody (1:20000, Abcam) in pH7.4 dilution buffer was then added to each well of the plate. After that the plates were allowed to incubate for 60 min at room temperature followed by washing 3 times with 250 μl/well pH7.4 washing buffer. Finally, 100 μl/well of TMB was added to each well for 15 min and the reaction was terminated using 50 μl/well of 0.16M/L sulfuric acid. The plates were read on a Thermo Multiscan FC at 450 nm (see FIG. 23A-23F). The measurements were performed in triplicate.

The target is the same in assay [5]. Put plainly: ELISA, coated hPD-L1-his, acidic wash and incubation after binding at pH7.4. The method, then:
as §1

T1 sequence (Q9NZQ7 19-238 limits assumed): as above
T2 sequence (Q9NZQ7 other isoform, or with tags, fused parts or gaps limits assumed): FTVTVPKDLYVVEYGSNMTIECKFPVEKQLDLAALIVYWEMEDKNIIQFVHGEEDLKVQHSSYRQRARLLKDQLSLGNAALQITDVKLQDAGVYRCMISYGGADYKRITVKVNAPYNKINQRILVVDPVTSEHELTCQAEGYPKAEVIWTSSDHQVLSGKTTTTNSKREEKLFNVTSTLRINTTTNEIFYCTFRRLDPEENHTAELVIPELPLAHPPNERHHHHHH

B1: 23A11-H3L3 (antibody, V domains shown)
VH: LVQLVQSGAEVKKPGASVKLSCKASGYIFTTYWIHWVKQRPGQGLEWIGMIQPNSGGTKYNDQFKNRATLTVDKSISTAYMELSRLTSDDTAVYYCARGAGTVDYFDYWGQGTTLSISS
VL: DIVLTQSPASLAVSVGQRATITCRASESVDIYGNSFMHWYQQKPGQSPKLLIYRASNLESGIPARFSGSGSRTDFTLTINPVEANDTATYYCHQSNDDPYTFGGGTKLETK
notes: Humanized; also called humanized 23A11 H3L3
Take B1: the “IC50 (read off the curve)” value in assay [1] was roughly 0.07 µg/mL. In addition, the EC50 (read off the curve) (commonly the concentration giving half of the maximal effect) in assay [2] is roughly 0.002 µg/mL. Further, in assay [3], binding was characterised by a dissociation constant (Kd) of 74.1 nM, the off-rate (koff) (usually a measure of how fast the partners let go of each other) was determined as 0.0542 s⁻¹ and the kon (usually the rate constant with which the complex forms) is 732000 M⁻¹ s⁻¹.

B2: 23A11-H5L3 (antibody, V domains shown)
VH: LVQLVQSGAEVKKPGASVKVSCKASGYIFTTYWIHWVRQAPGQGLEWIGMIQPNSGGTKYNDQFKNRVTLTVDTSISTAYMELSRLRSDDTAVYYCARGAGTVDYFDYWGQGTTLSISS
VL: DIVLTQSPASLAVSVGQRATITCRASESVDIYGNSFMHWYQQKPGQSPKLLIYRASNLESGIPARFSGSGSRTDFTLTINPVEANDTATYYCHQSNDDPYTFGGGTKLETK
notes: produced in 293 cells; also called humanized 23A11 H5L3
As for B2, the “IC50 (read off the curve)” value in assay [1] was roughly 0.05 µg/mL. Besides, the 50% effective concentration (EC50 (read off the curve)) in assay [2] was roughly 0.002 µg/mL.

B3: 23A11-H5L5 (antibody, V domains shown)
VH: LVQLVQSGAEVKKPGASVKVSCKASGYIFTTYWIHWVRQAPGQGLEWIGMIQPNSGGTKYNDQFKNRVTLTVDTSISTAYMELSRLRSDDTAVYYCARGAGTVDYFDYWGQGTTLSISS
VL: DIVLTQSPASLAVSVGQRATITCRASESVDIYGNSFMHWYQQKPGQAPKLLIYRASNLESGIPARFSGSGSRTDFTLTINPVEANDTATYYCQQSNDDPYTFGGGTKLETK
notes: produced in 293 cells; also called humanized 23A11 H5L5
As for B3, in assay [1], the “IC50 (read off the curve)” value was roughly 0.1 µg/mL. The “EC50 (read off the curve)” value in assay [2] was roughly 0.002 µg/mL.

B4: 22C9-C (antibody, V domains shown)
VH: QVQLQQSGAELVKPGASVKLSCKASGYTFTSYWMHWVWQRPGQGLEWIGMIHPNSDITNCNENFKHTVTLTVDKSSSTAYMQLSSLTSEDSAVFYCARSDGSSYWYFDVWGTGTTVTVSS
VL: SIVMTQTPKFLSVSAGDRVTITCKAGQSVNNDVAWYQQKPGQSPKLLIYYASNRYTGVPDRFTGSGYGTDFTFTISTVQAEDLAVYFCQQDFSSPLTFGAGTKLELK
notes: Mouse variable regions fused to a human IgG1 constant region; also called 22C9-chimeric; chimeric antibody 22C9
For the molecule B4, the “EC50 (read off the curve)” value in assay [4] was roughly 0.06 µg/mL. Also, in assay [5], the “binding signal at pH5 as percent of the signal at pH7.4” value is less than 50% and the “binding signal at pH5.5 as percent of the signal at pH7.4” value is less than 75%.
